Data set [1] has as its target T1, PyaGRHPR (Pyrococcus yayanosii, UniProt F8AEA4).
T1 construct: gene gyaR; synthetic codon-optimised gene in pET41c, E. coli BL21(DE3)-RIL; no tag mentioned; heat step 85 °C, Resource Q, Superose 12; 66 kDa homodimer
T1 sequence (F8AEA4 1-333): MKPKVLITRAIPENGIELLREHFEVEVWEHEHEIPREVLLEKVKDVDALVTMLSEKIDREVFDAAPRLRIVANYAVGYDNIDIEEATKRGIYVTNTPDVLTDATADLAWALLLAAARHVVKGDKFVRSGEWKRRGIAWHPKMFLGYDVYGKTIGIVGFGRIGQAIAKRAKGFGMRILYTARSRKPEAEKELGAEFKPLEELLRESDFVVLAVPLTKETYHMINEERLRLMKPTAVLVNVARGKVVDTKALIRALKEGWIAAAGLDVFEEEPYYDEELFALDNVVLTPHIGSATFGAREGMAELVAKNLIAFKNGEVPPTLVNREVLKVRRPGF
The data set is described as follows: NAD(P)H absorbance at […] nm. In kind it is biochemical. Particulars: co-substrate hydroxypyruvate or glyoxylate, Tris-HCl 100 mM pH 8.0, 50 °C.

Data set [2] addresses T2, PfuGRHPR (Pyrococcus furiosus, UniProt Q8U3Y2).
T2 construct: gene gyaR; synthetic codon-optimised gene in pET41c, E. coli BL21(DE3)-RIL; no tag mentioned; heat step 85 °C, Resource Q, Superose 12; 66 kDa homodimer
T2 sequence (Q8U3Y2 1-336): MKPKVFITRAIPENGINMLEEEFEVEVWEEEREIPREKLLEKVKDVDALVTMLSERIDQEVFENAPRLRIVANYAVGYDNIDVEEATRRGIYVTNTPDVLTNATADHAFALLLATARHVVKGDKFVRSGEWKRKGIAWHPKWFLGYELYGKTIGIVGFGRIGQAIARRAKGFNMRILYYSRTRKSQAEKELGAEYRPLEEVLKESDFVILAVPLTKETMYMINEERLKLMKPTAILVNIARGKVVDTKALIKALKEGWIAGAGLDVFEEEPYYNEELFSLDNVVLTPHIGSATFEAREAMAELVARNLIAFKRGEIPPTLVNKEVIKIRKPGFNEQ
In words: NAD(P)H absorbance at […] nm. In kind it is biochemical. Particulars: co-substrate hydroxypyruvate or glyoxylate, Tris-HCl 100 mM pH 8.0, 50 °C.

Data set [3] addresses T2, PfuGRHPR. The data set is described as follows: crystal structure […] Å. In kind it is binding.
For data set [4], the target named is T1, PyaGRHPR. In words: crystal structure […] Å. In kind it is binding. To be noted: copurified.
Data set [5] addresses T3, PhoGRHPR (Pyrococcus horikoshii, UniProt O58320).
T3 construct: gene gyaR; synthetic codon-optimised gene in pET41c, E. coli BL21(DE3)-RIL; no tag mentioned; heat step 85 °C, Resource Q, Superose 12; 66 kDa homodimer
T3 sequence (O58320 1-334): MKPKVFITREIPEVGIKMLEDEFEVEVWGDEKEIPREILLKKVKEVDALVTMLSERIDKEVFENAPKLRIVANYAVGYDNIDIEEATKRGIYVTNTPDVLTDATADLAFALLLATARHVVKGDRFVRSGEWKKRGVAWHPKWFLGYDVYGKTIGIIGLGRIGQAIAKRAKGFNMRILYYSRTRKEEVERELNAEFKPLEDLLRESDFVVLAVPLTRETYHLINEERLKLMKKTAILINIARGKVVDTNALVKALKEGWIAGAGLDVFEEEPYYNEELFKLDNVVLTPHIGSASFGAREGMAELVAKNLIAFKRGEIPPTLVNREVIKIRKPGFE
The data set is described as follows: NAD(P)H absorbance at […] nm, substrate inhibition fit. In kind it is biochemical. Particulars: NADH 0.5 mM, Tris-HCl 100 mM pH 8.0, 50 °C.

The target of data set [6] is T1, PyaGRHPR. The description is as above. In kind it is biochemical. Particulars: NADH 0.5 mM, Tris-HCl 100 mM pH 8.0, 50 °C.
Data set [7] deals with T2, PfuGRHPR. The description is as above. In kind it is biochemical. To be noted: NADH 0.5 mM, Tris-HCl 100 mM pH 8.0, 50 °C.
Substrate in data set [8]: O=C(O)C(=O)CO
The data set is described as follows: purified protein. In kind it is biochemical, Pyrococcus yayanosii. Particulars: NADH 0.5 mM, Tris-HCl 100 mM pH 8.0, 50 °C.

Substrate in data set [9]: O=CC(=O)O
In words: purified protein. In kind it is biochemical, Pyrococcus yayanosii. To be noted: NADH 0.5 mM, Tris-HCl 100 mM pH 8.0, 50 °C.

Substrate in data set [10]: O=C(O)C(=O)CO
The data set is described as follows: purified protein. To be noted: NADH 0.5 mM, Tris-HCl 100 mM pH 8.0, 50 °C. In kind it is biochemical, Pyrococcus furiosus.

Substrate in data set [11]: O=CC(=O)O
In words: purified protein. In kind it is biochemical, Pyrococcus furiosus. To be noted: NADH 0.5 mM, Tris-HCl 100 mM pH 8.0, 50 °C.

Substrate in data set [12]: O=C(O)C(=O)CO
In words: purified protein. In kind it is biochemical, Pyrococcus horikoshii. To be noted: NADH 0.5 mM, Tris-HCl 100 mM pH 8.0, 50 °C.

Substrate in data set [13]: O=CC(=O)O
In words: purified protein. In kind it is biochemical, Pyrococcus horikoshii. Particulars: NADH 0.5 mM, Tris-HCl 100 mM pH 8.0, 50 °C.

As to `NC(=O)C1=CN([C@@H]2O[C@H](COP(=O)(O)OP(=O)(O)OC[C@H]3O[C@@H](n4cnc5c(N)ncnc54)[C@H](O)[C@@H]3O)[C@@H](O)[C@H]2O)C=CC1` [NADH], the KM result in data set [1] and in data set [2] was “Archaeal GRHPR presents higher affinity for NADPH compared to NADH” throughout.
As to `NC(=O)C1=CN([C@@H]2O[C@H](COP(=O)(O)OP(=O)(O)OC[C@H]3O[C@@H](n4cnc5c(N)ncnc54)[C@H](OP(=O)(O)O)[C@@H]3O)[C@@H](O)[C@H]2O)C=CC1` [NADPH], the KM entry in [1] and in [2] was “Archaeal GRHPR presents higher affinity for NADPH compared to NADH” in each case. Further, in [3] (ternary complex with glyoxylate, copurified, modelled as NADP(H), oxidation state not resolved), the “crystal structure 1.40 Å” value is “Both structures include a cofactor molecule, unambiguously modeled as NADP(H)”. Moreover, the “crystal structure 2.0 Å” value in [4] (ternary complex with D-glycerate, modelled as NADP(H), oxidation state not resolved) was “Both structures include a cofactor molecule, unambiguously modeled as NADP(H)”.
With `O=C(O)C(=O)CO` [hydroxypyruvate], in data set [5], the “PhoGRHPR / NADH” value is 3820 ± 680 µM. In data set [6], the “PyaGRHPR / NADH” value amounted to 760 ± 200 µM. The “PfuGRHPR / NADH” value in [7] was found to be 350 ± 140 µM.
With `O=CC(=O)O` [glyoxylate], the “crystal structure 1.40 Å” value in data set [3] (ternary complex with NADP(H), ligand carried over from E. coli, active site, further molecule in tunnel) is “the determination of the PfuGRHPR structure reveals a ternary complex in the presence of glyoxylate”.
`O=C(O)[C@H](O)CO` [D-glycerate]: the “crystal structure 2.0 Å” value in data set [4] (ternary complex with NADP(H), active site, density did not distinguish D-glycerate from hydroxypyruvate) is “The PyaGRHPR structure contains D-glycerate, product of HPR activity”.

B1: PyaGRHPR (Pyrococcus yayanosii CH1) (protein)
chain: MKPKVLITRAIPENGIELLREHFEVEVWEHEHEIPREVLLEKVKDVDALVTMLSEKIDREVFDAAPRLRIVANYAVGYDNIDIEEATKRGIYVTNTPDVLTDATADLAWALLLAAARHVVKGDKFVRSGEWKRRGIAWHPKMFLGYDVYGKTIGIVGFGRIGQAIAKRAKGFGMRILYTARSRKPEAEKELGAEFKPLEELLRESDFVVLAVPLTKETYHMINEERLRLMKPTAVLVNVARGKVVDTKALIRALKEGWIAAAGLDVFEEEPYYDEELFALDNVVLTPHIGSATFGAREGMAELVAKNLIAFKNGEVPPTLVNREVLKVRRPGF
notes: synthetic codon-optimised gene in pET41c, E. coli BL21(DE3)-RIL; no tag mentioned; heat step 85 °C, Resource Q, Superose 12; 66 kDa homodimer
The Km is the substrate concentration at which the rate is half of its maximum. For orientation: kcat means the number of substrate molecules converted per active site and unit of time at saturation. As usually defined, the kcat/Km is the turnover number divided by the Michaelis constant. In the case of B1, in data set [8], the Km is 410 ± 110 µM, the turnover number (kcat) is 25 ± 5 s⁻¹ and the kcat/Km came to 60000 ± 25000 M⁻¹ s⁻¹. For the same molecule, in data set [9], the Michaelis constant (Km) came out at 1500 ± 140 µM, the kcat was determined as 4.8 ± 0.2 s⁻¹ and the kcat/Km was 3000 ± 500 M⁻¹ s⁻¹.

B2: PfuGRHPR (Pyrococcus furiosus DSM 3638) (protein)
chain: MKPKVFITRAIPENGINMLEEEFEVEVWEEEREIPREKLLEKVKDVDALVTMLSERIDQEVFENAPRLRIVANYAVGYDNIDVEEATRRGIYVTNTPDVLTNATADHAFALLLATARHVVKGDKFVRSGEWKRKGIAWHPKWFLGYELYGKTIGIVGFGRIGQAIARRAKGFNMRILYYSRTRKSQAEKELGAEYRPLEEVLKESDFVILAVPLTKETMYMINEERLKLMKPTAILVNIARGKVVDTKALIKALKEGWIAGAGLDVFEEEPYYNEELFSLDNVVLTPHIGSATFEAREAMAELVARNLIAFKRGEIPPTLVNKEVIKIRKPGFNEQ
notes: as for B1
As to B2, in data set [10], the Michaelis-Menten constant (Km) is 140 ± 55 µM, the kcat stood at 10 ± 5 s⁻¹ and the kcat/Km worked out at 75000 ± 50000 M⁻¹ s⁻¹. In addition, in data set [11], the Km amounted to 1800 ± 25 µM, the kcat was found to be 13 ± 0.5 s⁻¹ and the kcat/Km was determined as 7000 ± 500 M⁻¹ s⁻¹.

B3: PhoGRHPR (Pyrococcus horikoshii OT3) (protein)
chain: MKPKVFITREIPEVGIKMLEDEFEVEVWGDEKEIPREILLKKVKEVDALVTMLSERIDKEVFENAPKLRIVANYAVGYDNIDIEEATKRGIYVTNTPDVLTDATADLAFALLLATARHVVKGDRFVRSGEWKKRGVAWHPKWFLGYDVYGKTIGIIGLGRIGQAIAKRAKGFNMRILYYSRTRKEEVERELNAEFKPLEDLLRESDFVVLAVPLTRETYHLINEERLKLMKKTAILINIARGKVVDTNALVKALKEGWIAGAGLDVFEEEPYYNEELFKLDNVVLTPHIGSASFGAREGMAELVAKNLIAFKRGEIPPTLVNREVIKIRKPGFE
notes: as for B1
For the molecule B3, in [12], the Km worked out at 70 ± 11 µM, the catalytic constant (kcat) was found to be 4.5 ± 0.5 s⁻¹ and the kcat/Km was 65000 ± 20000 M⁻¹ s⁻¹. In addition, in data set [13], the Michaelis constant (Km) worked out at 160 ± 25 µM, the turnover number (kcat) is 4 ± 0.5 s⁻¹ and the kcat/Km turned out to be 25000 ± 5000 M⁻¹ s⁻¹.

(Values after PMC4749974, “New insights into the mechanism of substrates trafficking in Glyoxylate/Hydroxypyruvate reductases” (Scientific Reports, 2016).)
